One experiment concerns the target LIGHT (UniProt O43557 74-240, limits assumed). The experiment in a line: BLI (Octet RH96, FIG. 22).
A further experiment addresses T1, FasL (UniProt P48023 134-281, limits assumed).
T1 sequence (looked up): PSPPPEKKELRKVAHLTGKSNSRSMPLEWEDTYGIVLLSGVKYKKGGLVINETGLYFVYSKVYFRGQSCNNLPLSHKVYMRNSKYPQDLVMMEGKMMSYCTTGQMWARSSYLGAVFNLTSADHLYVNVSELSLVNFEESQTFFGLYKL
The experiment can be described thus: BLI (Octet RH96, FIG. 22).

In a further experiment the target is TRAIL (UniProt P50591 114-281). The experiment in a line: BLI (Octet RH96, FIG. 22).
Chain of TRAIL (P50591 114-281 limits assumed): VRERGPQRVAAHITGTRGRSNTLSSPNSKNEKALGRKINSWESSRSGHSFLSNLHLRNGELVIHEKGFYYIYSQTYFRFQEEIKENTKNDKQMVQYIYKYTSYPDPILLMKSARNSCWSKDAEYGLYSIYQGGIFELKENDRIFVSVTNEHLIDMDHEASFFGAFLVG
Experiment [1] concerns the target T2, soluble recombinant human TL1A trimer (human, UniProt O95150 72-251, limits assumed).
T2 construct: also called active TL1A trimer; trimeric TL1A
T2 sequence (looked up): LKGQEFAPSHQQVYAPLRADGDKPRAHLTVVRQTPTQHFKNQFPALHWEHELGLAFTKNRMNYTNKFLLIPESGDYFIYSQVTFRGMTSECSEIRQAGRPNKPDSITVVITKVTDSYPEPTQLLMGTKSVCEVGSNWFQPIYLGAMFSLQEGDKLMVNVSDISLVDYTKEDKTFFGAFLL
The experiment in a line: SPR at 37 C, soluble TL1A trimer up to 100 nM; apparent KD (KDapp). As for the experimental part: In addition to measuring binding to scTL1A, binding to increasing concentrations of soluble recombinant human TL1A trimer (up to 100 nM) was measured at 37C via surface plasmon resonance.

Experiment [2] concerns the target T3, membrane-bound TL1A transiently expressed on CHO cells (human, UniProt O95150 1-251).
T3 construct: whole, on cells
T3 sequence (looked up): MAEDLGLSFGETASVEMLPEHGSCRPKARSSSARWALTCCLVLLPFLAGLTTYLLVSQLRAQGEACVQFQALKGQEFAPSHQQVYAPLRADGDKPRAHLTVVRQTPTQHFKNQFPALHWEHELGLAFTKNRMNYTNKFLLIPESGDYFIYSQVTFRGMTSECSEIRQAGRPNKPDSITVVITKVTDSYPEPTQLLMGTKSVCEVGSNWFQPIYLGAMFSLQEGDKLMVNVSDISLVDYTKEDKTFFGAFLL
The experiment in a line: flow cytometry on CHO cells transiently transfected with TL1A, 1 hour at 4 C. As for the experimental part: Anti-TL1A mAbs were first screened for binding affinity to membrane-bound TL1A. CHO cells were transiently transfected to express TL1A, then were incubated with anti-TL1A mAbs for 1 hour at 4° C. and analyzed by flow cytometry. Hundreds of anti-TL1A mAbs were screened for binding, in order to determine which were the best binders to investigate further. […] The binding data is depicted in FIG. 16A.

Chain of LIGHT (O43557 74-240 limits assumed): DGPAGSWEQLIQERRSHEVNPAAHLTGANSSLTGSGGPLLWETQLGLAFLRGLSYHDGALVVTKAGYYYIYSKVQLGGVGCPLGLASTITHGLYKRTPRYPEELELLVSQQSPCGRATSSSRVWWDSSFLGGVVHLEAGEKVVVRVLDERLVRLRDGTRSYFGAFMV

B1: XENP47942 70416_041[TL1a]_H1L1_Fab IgG1_PVA_/S267K/M428L/N434S (antibody, V domains shown)
VH: QVQLVQSGAEVKKPGASVKVSCKVSGFSVTSYNVHWVRQAPGQGLEWMGVMWSGGNTDYNSKFQGRVTMTRDTSTNTVYMELSSLRSEDTAVYYCARAGRYYHDSNYYWDFPYWGQGTLVTVSS
VL: DIQMTQSPSSVSASVGDRVTITCRASEDIYSGLAWYQQKPGKSPKLLIYGASSLQDGVPSRFSGSGSGTDYTLTISSLQPEDFATYFCQEGLKSPYTFGAGTKLEIKR
notes: also called XmAb942; Xmab942
Consider B1, for which the binding result with LIGHT, in the experiment with FasL and with TRAIL was “no binding” throughout. Further, the Kd in experiment [1] is 0.008 to 0.01 nM. In experiment [2], this molecule gave an EC50 of 1.1 nM.
